Measurements from patent US20060134087A1, “ITI-D1 Kunitz domain mutants as hNE inhibitors” (Dyax Corp., priority 1988, published 2006).

Key:
hNE [1] = target: T1, hNE (Homo sapiens, UniProt P08246); assay: Temperature stability, residual inhibitory activity for hNE; assay type: physicochemical; design: Residual hNE Inhibitory Activity: unit not given here; conditions: for Residual hNE Inhibitory Activity: 18 hours, pH 7.0, 1 μM protein; for temperature below which full inhibitory activity is maintained: thirty minutes, 1 μM, phosphate buffer pH=7
T1 sequence (P08246 30-267): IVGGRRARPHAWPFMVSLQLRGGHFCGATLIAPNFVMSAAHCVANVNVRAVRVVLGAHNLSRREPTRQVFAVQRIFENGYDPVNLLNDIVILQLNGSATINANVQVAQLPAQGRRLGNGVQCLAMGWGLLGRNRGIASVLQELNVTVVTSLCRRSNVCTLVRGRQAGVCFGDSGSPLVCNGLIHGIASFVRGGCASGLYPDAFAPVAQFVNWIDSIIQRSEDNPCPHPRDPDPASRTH
Description: The stability of EPI-HNE proteins to temperatures in the range 0° C. to 95° C. was assessed by incubating the inhibitors for thirty minutes at various temperatures and determining residual inhibitory activity for hNE. In these experiments, protein concentrations were 1 μM in phosphate buffer at pH=7. As is shown in Table 40, the four inhibitors are quite temperature stable.
Proteins were incubated at the stated temperature for 18 hours in buffer at pH 7.0. In all cases protein concentrations were 1 μM. At the end of the incubation period, aliquots of the reactions were diluted and residual hNE-inhibition activity determined.

hNE [2] = target: T1, hNE; assay: Storage stability of purified inhibitor stock solutions; assay type: physicochemical
Description: Residual ammonium sulfate was removed from the EPI-HNE-2 preparation by ion exchange chromatography. The solution from the ammonium sulfate precipitation step was applied to a strong cation-exchange column (50 ml bed volume Macroprep 50S) (Bio-Rad Laboratories, Inc, Hercules, Calif.) previously equilibrated with 10 mM NaCitrate, pH=3.5. After loading, the column was washed with 300 ml of 10 mM NaCitrate, pH=3.5. EPI-HNE-2 was then batch-eluted from the column with 300 ml of 50 mM NH4OAc, pH=6.2. Fractions containing EPI-HNE-2 activity were pooled and the resulting solution was lyophilized. The dried protein powder was dissolved in 50 ml dH2O and the solution was passed through a 0.2μ filter (#4192, Gelman Sciences, Ann Arbor, Mich.). The concentration of the active inhibitor in the final stock solution was determined to be 2 mM (13.5 mg/ml).
The lyophilized protein powder was dissolved in 26 ml dH2O and the solution was passed through a 0.2μ filter (#4912, Gelman Sciences, Ann Arbor, Mich.). […] EPI-HNE-3 stored in water solution (without any buffering) deteriorated when kept at 4° C.

hNE [3] = target: T1, hNE; assay: hNE inhibition, hydrolysis of fluorogenic substrate (Ki; standard hNE-inhibition assay); assay type: biochemical; design: concentration or dose not given beside the values
Description: Inhibition constants for the proteins reacting with hNE (Ki) were determined using RT measurements of hydrolysis of a fluorogenic substrate (N-methoxysuccinyl-Ala-Ala-Pro-Val-7-amino-4-methylcoumarin, Sigma M-9771) by hNE. For these measurements, aliquots of the appropriately diluted inhibitor stocks were added to 2 ml solutions of 0.847 nM hNE in reaction buffer (50 mM Tris-Cl, pH=8.0, 150 mM NaCl, 1 mM CaCl2, 0.25% Triton-X-100) in plastic fluorescence cuvettes. The reactions were incubated at RT for 30 minutes. At the end of the incubation period, the fluorogenic substrate was added at a concentration of 25 μM and the time course for increase in fluorescence at 470 nm (excitation at 380 nm) due to enzymatic substrate cleavage was recorded using a spectrofluorimeter (Perkin-Elmer 650-15) and strip chart recorder. […] Ki is related to Kapparent by Ki=Kapparent×(1/(1+(S0/Km))). The correction is small compared to the possible errors in Kapparent. Rates of enzymatic substrate cleavage were determined from the linear slopes of the recorded increases in fluorescence. The percent residual activity of hNE in the presence of the inhibitor was calculated as the percentage of the rate of fluorescence increase observed in the presence of the inhibitor to that observed when no added inhibitor was present.
We recorded data used to determine Ki for EPI-HNE-2 and EPI-HNE-3 reacting with hNE. Data obtained as described above are recorded as percent residual activity plotted as a function of added inhibitor. Values for Ki and for active inhibitor concentration in the stock are obtained from a least-squares fit program.

hNE [4] = target: T1, hNE; assay: Resistance to oxidative inactivation by Chloramine-T, residual hNE-inhibition activity; assay type: physicochemical; conditions: for Percent Residual hNE-Inhibitory Activity: 20 minutes at RT
Description: At the end of the incubation period, the oxidation reactions were quenched by adding methionine to a final concentration of 4 mM. After a further 10 minute incubation, the quenched reactions were diluted and assayed for residual inhibitor activity in our standard hNE-inhibition assay.
Inhibitors were incubated in the presence of Chloramine-T at the molar ratios indicated for 20 minutes at RT. Oxidation reactions were quenched by adding methionine to a final concentration of 4 mM. Residual hNE-inhibition activity remaining in the quenched reactions is shown as a percentage of the activity observed with no added oxidant.

[5] = Molar Ratio CHL-T:Inhibitor 1.0
[6] = Molar Ratio CHL-T:Inhibitor 10.
[7] = Molar Ratio CHL-T:Inhibitor .50

EPI-HNE-3: ITI-D2(3-58) with R15I, I18F, Q19P, L20R; SEQ ID NO 026 (AACNLPIVRGPCIAFFPRWAFDAVKGKCVLFPYGGCQGNGNKFYSEKECREYCGVP; Epi-HNE-3)
Residual hNE Inhibitory Activity (hNE [1]; Temperature 0 ° C.): 96 | Residual hNE Inhibitory Activity (hNE [1]; Temperature 23 ° C.): 105 | Residual hNE Inhibitory Activity (hNE [1]; Temperature 37 ° C.): 99 | Residual hNE Inhibitory Activity (hNE [1]; Temperature 52 ° C.): 100 | Residual hNE Inhibitory Activity (hNE [1]; Temperature 65 ° C.): 87 | Residual hNE Inhibitory Activity (hNE [1]; Temperature 80 ° C.): 79 | Residual hNE Inhibitory Activity (hNE [1]; Temperature 93 ° C.): 57 | temperature below which full inhibitory activity is maintained (hNE [1]): below 65 °C | activity after storage (hNE [2]; stock solution 250 μM, −70° C., more than six months): no loss of activity | material active after storage (hNE [2]; water solution without buffering, 4° C., five months): about 70% | Percent residual hNE activity (hNE [3]; 10. μl of EPI-HNE-3 solution added): 81.6% | Percent residual hNE activity (hNE [3]; 20. μl of EPI-HNE-3 solution added): 66.9% | Percent residual hNE activity (hNE [3]; 30. μl of EPI-HNE-3 solution added): 53.4% | Percent residual hNE activity (hNE [3]; 40. μl of EPI-HNE-3 solution added): 38.0% | Percent residual hNE activity (hNE [3]; 50. μl of EPI-HNE-3 solution added): 27.6% | Percent residual hNE activity (hNE [3]; 55. μl of EPI-HNE-3 solution added): 21.5% | Percent residual hNE activity (hNE [3]; 60. μl of EPI-HNE-3 solution added): 13.0% | Percent residual hNE activity (hNE [3]; 65. μl of EPI-HNE-3 solution added): 11.0% | Percent residual hNE activity (hNE [3]; 70. μl of EPI-HNE-3 solution added): 7.9% | Percent residual hNE activity (hNE [3]; 75. μl of EPI-HNE-3 solution added): 3.8% | Percent residual hNE activity (hNE [3]; 80. μl of EPI-HNE-3 solution added): 3.3% | Percent residual hNE activity (hNE [3]; 85. μl of EPI-HNE-3 solution added): 2.1% | Percent residual hNE activity (hNE [3]; 90. μl of EPI-HNE-3 solution added): 1.8% | Percent residual hNE activity (hNE [3]; 100. μl of EPI-HNE-3 solution added): 1.6% | Percent residual hNE activity (hNE [3]; 110. μl of EPI-HNE-3 solution added): 0.8% | Percent residual hNE activity (hNE [3]; 120. μl of EPI-HNE-3 solution added): 0.7% | Percent residual hNE activity (hNE [3]; 160. μl of EPI-HNE-3 solution added): 0.6% | Percent residual hNE activity (hNE [3]; 200. μl of EPI-HNE-3 solution added): 0.2% | Percent Residual hNE-Inhibitory Activity (hNE [4]; Molar Ratio CHL-T:Inhibitor 0): 100% | Percent Residual hNE-Inhibitory Activity (hNE [4]; [5]): 97% | Percent Residual hNE-Inhibitory Activity (hNE [4]; Molar Ratio CHL-T:Inhibitor 3.0): 97% | Percent Residual hNE-Inhibitory Activity (hNE [4]; Molar Ratio CHL-T:Inhibitor 5.0): 94% | Percent Residual hNE-Inhibitory Activity (hNE [4]; [6]): 97% | Percent Residual hNE-Inhibitory Activity (hNE [4]; Molar Ratio CHL-T:Inhibitor 30.): 100% | Percent Residual hNE-Inhibitory Activity (hNE [4]; Molar Ratio CHL-T:Inhibitor 50.): 94% | Percent Residual hNE-Inhibitory Activity (hNE [4]; [7]): 97% | hNE-inhibition activity after exposure to Chloramine-T (hNE [4]; all molar ratios tested (up to 50:1 for EPI-HNE-3 and EPI-HNE-4)): retain essentially complete hNE-inhibition activity

EPI-HNE-2: EPI-HNE-1 with four additional residues EAEA at the amino terminus, SEQ ID NO 008
Residual hNE Inhibitory Activity (hNE [1]; Temperature 0 ° C.): 101 | Residual hNE Inhibitory Activity (hNE [1]; Temperature 23 ° C.): 103 | Residual hNE Inhibitory Activity (hNE [1]; Temperature 37 ° C.): 97 | Residual hNE Inhibitory Activity (hNE [1]; Temperature 52 ° C.): 101 | Residual hNE Inhibitory Activity (hNE [1]; Temperature 65 ° C.): 95 | Residual hNE Inhibitory Activity (hNE [1]; Temperature 80 ° C.): 101 | Residual hNE Inhibitory Activity (hNE [1]; Temperature 93 ° C.): 88 | temperature below which full inhibitory activity is maintained (hNE [1]): below 90 °C | activity after storage (hNE [2]; stock solution 2 mM, 4° C. and −70° C., more than 11 months): no loss in activity | Percent residual hNE activity (hNE [3]; 10. μl of EPI-HNE-2 solution added): 82.9% | Percent residual hNE activity (hNE [3]; 20. μl of EPI-HNE-2 solution added): 71.8% | Percent residual hNE activity (hNE [3]; 30. μl of EPI-HNE-2 solution added): 59.5% | Percent residual hNE activity (hNE [3]; 40. μl of EPI-HNE-2 solution added): 46.2% | Percent residual hNE activity (hNE [3]; 50. μl of EPI-HNE-2 solution added): 39.2% | Percent residual hNE activity (hNE [3]; 55. μl of EPI-HNE-2 solution added): 32.2% | Percent residual hNE activity (hNE [3]; 60. μl of EPI-HNE-2 solution added): 22.5% | Percent residual hNE activity (hNE [3]; 65. μl of EPI-HNE-2 solution added): 23.5% | Percent residual hNE activity (hNE [3]; 70. μl of EPI-HNE-2 solution added): 15.0% | Percent residual hNE activity (hNE [3]; 75. μl of EPI-HNE-2 solution added): 10.4% | Percent residual hNE activity (hNE [3]; 80. μl of EPI-HNE-2 solution added): 8.6% | Percent residual hNE activity (hNE [3]; 85. μl of EPI-HNE-2 solution added): 4.8% | Percent residual hNE activity (hNE [3]; 90. μl of EPI-HNE-2 solution added): 1.4% | Percent residual hNE activity (hNE [3]; 95. μl of EPI-HNE-2 solution added): 2.0% | Percent residual hNE activity (hNE [3]; 100. μl of EPI-HNE-2 solution added): 2.5% | Percent residual hNE activity (hNE [3]; 120. μl of EPI-HNE-2 solution added): 0.2% | Percent residual hNE activity (hNE [3]; 150. μl of EPI-HNE-2 solution added): 0.2% | Percent residual hNE activity (hNE [3]; 200. μl of EPI-HNE-2 solution added): 0.04% | Percent Residual hNE-Inhibitory Activity (hNE [4]; Molar Ratio CHL-T:Inhibitor 0): 100% | Percent Residual hNE-Inhibitory Activity (hNE [4]; Molar Ratio CHL-T:Inhibitor 0.25): 94% | Percent Residual hNE-Inhibitory Activity (hNE [4]; [5]): 102% | Percent Residual hNE-Inhibitory Activity (hNE [4]; Molar Ratio CHL-T:Inhibitor 1.5): 95% | Percent Residual hNE-Inhibitory Activity (hNE [4]; Molar Ratio CHL-T:Inhibitor 2.0): 102% | Percent Residual hNE-Inhibitory Activity (hNE [4]; Molar Ratio CHL-T:Inhibitor 4.0): 95% | Percent Residual hNE-Inhibitory Activity (hNE [4]; [6]): 98% | Percent Residual hNE-Inhibitory Activity (hNE [4]; [7]): 102%
